Measured values as given in patent publication US20200246419A1.

Molecular target: CD36 (human) (UniProt P16671)
Test: cell-based or functional assay

Sequence of CD36 (human) (P16671 2-472): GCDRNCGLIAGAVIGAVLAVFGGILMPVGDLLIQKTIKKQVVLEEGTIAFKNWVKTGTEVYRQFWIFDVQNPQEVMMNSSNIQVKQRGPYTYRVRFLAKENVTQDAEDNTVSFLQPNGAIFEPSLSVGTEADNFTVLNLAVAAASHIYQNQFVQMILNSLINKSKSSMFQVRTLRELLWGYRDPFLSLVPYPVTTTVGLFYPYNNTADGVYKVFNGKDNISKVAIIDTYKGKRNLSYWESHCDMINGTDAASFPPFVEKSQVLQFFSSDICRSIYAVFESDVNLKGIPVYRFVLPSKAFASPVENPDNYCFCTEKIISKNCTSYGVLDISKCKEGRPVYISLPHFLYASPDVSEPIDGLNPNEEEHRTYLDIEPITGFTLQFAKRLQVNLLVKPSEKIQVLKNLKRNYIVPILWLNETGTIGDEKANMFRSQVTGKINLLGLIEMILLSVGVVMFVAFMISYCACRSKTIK

total cell number (Wst-1 assay) of patient-derived ovarian cancer cell lines treated with rhTsp-1 for up to 72 hours: < 50%
Substance: recombinant human Tsp-1 (from UniProt P07996 19-1170) (ligand)
